Reference: patent US20180022822A1 (MABIMMUNE DIAGNOSTICS, published 2018)

Legend:
[1] = target: T1, recombinant human Fibroblast Activation Protein (FAP) with N-terminus 6x histidine tag (human, UniProt Q12884 26-760); test: direct ELISA: rFAP directly coated (FAP)
T1 construct: Bought protein; also called rFAP; rhFAP
T1 sequence: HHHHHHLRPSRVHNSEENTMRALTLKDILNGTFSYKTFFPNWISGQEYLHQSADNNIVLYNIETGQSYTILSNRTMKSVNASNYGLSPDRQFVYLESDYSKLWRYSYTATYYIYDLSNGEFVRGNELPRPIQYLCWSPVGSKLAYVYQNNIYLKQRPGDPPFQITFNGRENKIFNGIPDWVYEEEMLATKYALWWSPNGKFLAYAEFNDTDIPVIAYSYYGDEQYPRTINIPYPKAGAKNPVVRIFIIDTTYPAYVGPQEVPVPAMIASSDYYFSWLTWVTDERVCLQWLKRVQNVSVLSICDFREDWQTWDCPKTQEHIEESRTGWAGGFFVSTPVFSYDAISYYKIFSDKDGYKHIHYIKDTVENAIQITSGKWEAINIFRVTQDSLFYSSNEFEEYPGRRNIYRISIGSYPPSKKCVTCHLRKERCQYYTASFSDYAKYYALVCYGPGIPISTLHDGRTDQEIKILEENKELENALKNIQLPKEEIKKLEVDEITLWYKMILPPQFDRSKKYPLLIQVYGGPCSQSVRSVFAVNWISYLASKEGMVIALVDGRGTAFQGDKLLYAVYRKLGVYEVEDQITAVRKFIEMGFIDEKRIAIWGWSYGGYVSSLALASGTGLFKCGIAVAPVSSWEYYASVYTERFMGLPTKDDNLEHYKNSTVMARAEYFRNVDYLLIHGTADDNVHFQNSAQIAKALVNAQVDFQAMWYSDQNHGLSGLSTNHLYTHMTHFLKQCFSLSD

[2] = target: T1, recombinant human Fibroblast Activation …; test: direct ELISA: rFAP coated directly on the plate, antibody titrated, OD 450 nm
[3] = target: T2, FAP peptide 521-539 with alanine substitution at position 529 (human); test: alanine-mutated linear peptides spotted on nitrocellulose
T2 construct: also called spot 10
T2 peptide: KMILPPQFARSKKYPLLIQ
Protocol: Binding capacity of the antibodies was tested on these peptides spotted onto a nitrocellulose membrane (JPT Peptide Technologies, Berlin, Germany) and using HRP-conjugated donkey anti-human IgG secondary antibody (Jackson immunoResearch, Newmarket, UK) followed by detection of HRP activity (FIGS. 4A and C). In brief, epitope mapping was performed using scans of overlapping peptides. The entire sequences of FAP were synthesized as a total of 188 linear 15-mer peptides with an 11 amino acid overlap between individual peptides. Those peptides were spotted onto nitrocellulose membranes (JPT Peptide Technologies, Berlin, Germany). The membrane was activated for 5 min in methanol and washed in TBS for 10 min at RT. Non-specific binding sites were blocked for 2 h at RT with Roti®-Block (Carl Roth GmbH+Co. KG, Karlsruhe, Germany). Human antibodies (1 μg/ml) were incubated in Roti®-Block for 3 h at RT. Binding of primary antibody was determined using HRP-conjugated donkey anti-human IgG secondary antibody. Blots were developed and evaluated using ECL and ImageQuant 350 detection (GE Healthcare, Otelfingen, Switzerland).

[4] = target: T1, recombinant human Fibroblast Activation …; test: capture ELISA: His-tagged rFAP captured by coated anti-His antibody (sFAP)
Protocol: For the capture ELISA, the microplates were coated with mouse anti-His monoclonal antibody (Clontech) diluted to a concentration of 3 μg/ml in PBS, the plates were then blocked, FAP or BSA were diluted to a concentration of 2 μg/ml in PBS and added to the plates to be captured. The binding efficiency of the antibodies was then tested.
The EC₅₀ values were estimated by a non-linear regression using GraphPad Prism (San Diego, USA) software.

[5] = target: T1, recombinant human Fibroblast Activation …; test: SPR (ProteOn): rhuFAP amine-coupled on a GLC chip, antibody injected at 106.7, 53.3, 26.7, 13.3 and 6.7 nM
Protocol: This was achieved by varying the concentration of the activation reagents used in each channel. Three activation solutions were prepared using a threefold serial dilution of a stock mixture containing 0.4 M EDC+0.1 M sulfo-NHS and injected for 360 s. Then rhuFAP at 2.5 μg/ml in coupling buffer (10 mM HEPES, 150 mM NaCl, 3.4 mM EDTA, 0.005% Tween 20, pH 5.2) was coupled for 1020 s at 25 μL/min. Excess reactive esters were blocked for 600 s with 1 M ethanolamine hydrochoride. […] serial dilution of […] starting at 16 μg/mL (106.7 nM) was injected for 400 s at 60 μL/min. A single injection delivered a full concentration series, using buffer to complete a row of six samples and provide an in-line blank for double-referencing the response data. Association and dissociation phases were measured for 400 s and 3600 s, respectively.

[6] = target: T1, recombinant human Fibroblast Activation …; test: ELISA: rhFAP held on the plate by an anti-tag antibody, HRP-labelled NI-206.82C2 titrated, TMB, OD 450 nm [continued) E]
Text: (§1) Active recombinant human enzymes evaluated in this assay include: Fibroblast Activation Protein (FAP; Sino Biologicals, 10464-H07H), Dipeptidyl Peptidase IV (DPPIV, BPS Bioscience 80040), Dipeptidyl Peptidase 8 (DPP8, BPS Bioscience 80080), Dipeptidyl Peptidase 9 (DPP9, BPS Bioscience 80080), and Prolyl Oligopeptidase/Prolyl Endopeptidase (POP/PREP, BPS Bioscience 80105). Each recombinant peptidase was expressed with a purification tag, and attached to the 96 well ELISA plate using either a mouse anti-Histidine antibody (CloneTech), or a mouse anti-Glutathione S-transferase (GST, Sino Biologicals, 111213-MM02) tag antibody. […] H-Gly-Pro-AMC (ATT Bioquest, 13450) was used to validate the presence and activity of DPP4, DPP9, and DPP8. Z-Gly-Pro-AMC (BaChem, 11145) was used to evaluate the activity of FAP and POP/PREP. […] Following a washing step, bound antibody was detected using 3,3′,5,5′-Tetramethylbenzidine (TMB) substrate.

[7] = target: T3, recombinant human Dipeptidyl Peptidase 8 (DPP8) (human, UniProt Q6V1X1 1-898, limits assumed); test: ELISA: enzyme held on the plate by an anti-tag antibody, HRP-labelled NI-206.82C2 titrated [continued) E]
T3 construct: Bought active enzyme; also called rhDPP8; BPS Bioscience 80080
T3 sequence (Q6V1X1 whole entry): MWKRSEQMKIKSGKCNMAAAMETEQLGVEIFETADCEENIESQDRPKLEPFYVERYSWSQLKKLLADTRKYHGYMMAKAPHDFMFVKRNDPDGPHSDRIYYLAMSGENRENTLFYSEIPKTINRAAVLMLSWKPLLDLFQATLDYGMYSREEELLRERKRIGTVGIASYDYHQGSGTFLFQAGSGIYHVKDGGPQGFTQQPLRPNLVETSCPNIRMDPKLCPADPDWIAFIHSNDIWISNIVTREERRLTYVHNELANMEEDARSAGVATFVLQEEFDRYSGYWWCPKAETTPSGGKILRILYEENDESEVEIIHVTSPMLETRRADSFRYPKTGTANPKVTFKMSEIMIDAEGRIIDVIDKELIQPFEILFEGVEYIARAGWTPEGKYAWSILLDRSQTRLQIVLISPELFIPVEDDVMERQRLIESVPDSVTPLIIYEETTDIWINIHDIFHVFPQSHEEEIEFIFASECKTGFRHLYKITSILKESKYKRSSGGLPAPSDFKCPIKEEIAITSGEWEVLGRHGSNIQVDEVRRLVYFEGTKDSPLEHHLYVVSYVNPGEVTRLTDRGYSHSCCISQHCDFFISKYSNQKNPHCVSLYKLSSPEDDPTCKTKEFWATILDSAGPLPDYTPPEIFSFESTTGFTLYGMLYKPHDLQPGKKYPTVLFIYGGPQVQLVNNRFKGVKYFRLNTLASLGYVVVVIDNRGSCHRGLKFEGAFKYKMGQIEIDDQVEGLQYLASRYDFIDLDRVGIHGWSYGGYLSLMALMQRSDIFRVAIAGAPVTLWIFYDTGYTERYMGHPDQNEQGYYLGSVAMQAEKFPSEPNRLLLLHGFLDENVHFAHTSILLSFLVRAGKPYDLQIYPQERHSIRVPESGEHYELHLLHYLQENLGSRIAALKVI
Text: as §1

EC50 [1]: 0.61 nM
EC50 [2]: 0.608 nM
binding result [3]: no binding
EC50 [4]: 0.014 nM
Kd [5]: 5.08 nM
koff [5]: 0.000861 s⁻¹
kon [5]: 173000 M⁻¹ s⁻¹
EC50 (read off the curve) [6]: ~0.05 nM
binding result [7]: no binding
B1: NI-206.82C2 (antibody, V domains shown)
VH: QVQLQQSGPGLVKPSQTLSLTCAISGDSVSSNSVTWNWIRQSPSRGLEWLGRTYYRSKWYNDYAVSVKGRITINPDTSKNQFYLQLKSVTPEDAAVYYCARDSSILYGDYWGQGTLVTVSS
VL: QAVLTQPSSLSASPGASASLTCTLPSGINVGTYRIFWFQQKPGSPPQYLLSYKSDSDNHQGSGVPSRFSGSKDASANAGILLISGLQSEDEADYYCMIWHSSAWVFGGGTKLTVL
notes: Recombinantly expressed as complete human IgG1 with a lambda light chain; HRP-labelled in the homologue and sandwich ELISAs, Cy5-labelled in flow cytometry; also called HRP-labelled 82C2; Cy5 labelled 82C2
